Data as given in PMC9482650, “Quantitative fragmentomics allow affinity mapping of interactomes” (Nature Communications, 2022).
Blank lines part the entries; values can stand above or below the binder they belong to.

How the values were obtained:
Assay in all cases: holdup assay
Set-up in all cases: key: below the threshold = too weak to quantify, mostly under pKd 3.1 to 4
Conditions in all cases: plain residues with an end cap or a label only (N-terminal biotin on a linker: ado-ado)
ARHGEF12, Q9NZN5-2 = molecular target: ARHGEF12, Q9NZN5-2
Chain of ARHGEF12, Q9NZN5-2 (Q9NZN5 other isoform, or with tags, fused parts or gaps): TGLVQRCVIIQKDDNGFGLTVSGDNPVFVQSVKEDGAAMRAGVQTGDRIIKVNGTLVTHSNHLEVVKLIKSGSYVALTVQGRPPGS

DLG1_2, Q12959 = molecular target: DLG1_2, Q12959
Chain of DLG1_2, Q12959 (Q12959 314-412): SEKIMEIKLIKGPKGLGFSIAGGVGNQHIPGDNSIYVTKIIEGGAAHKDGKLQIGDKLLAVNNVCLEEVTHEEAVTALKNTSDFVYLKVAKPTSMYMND

DLG3_1, Q92796 = molecular target: T1, DLG3_1, Q92796
T1 sequence (Q92796 125-227, limits assumed, looked up): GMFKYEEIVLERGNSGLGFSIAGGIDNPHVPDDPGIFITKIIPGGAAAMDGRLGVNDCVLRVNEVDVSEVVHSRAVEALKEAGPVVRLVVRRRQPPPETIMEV

DLG3_3, Q92796 = molecular target: T2, DLG3_3, Q92796
T2 sequence (Q92796 374-475, limits assumed, looked up): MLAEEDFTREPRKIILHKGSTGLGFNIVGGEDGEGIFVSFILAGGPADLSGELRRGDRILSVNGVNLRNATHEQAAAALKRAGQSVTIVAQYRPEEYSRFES

DLG5_1, Q8TDM6 = molecular target: DLG5_1, Q8TDM6
Chain of DLG5_1, Q8TDM6 (Q8TDM6 617-713): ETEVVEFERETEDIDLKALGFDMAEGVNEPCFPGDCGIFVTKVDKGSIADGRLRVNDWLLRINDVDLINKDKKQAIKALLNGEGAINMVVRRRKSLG

DVL3, Q92997 = molecular target: T3, DVL3, Q92997
T3 sequence (Q92997 244-331, limits assumed, looked up): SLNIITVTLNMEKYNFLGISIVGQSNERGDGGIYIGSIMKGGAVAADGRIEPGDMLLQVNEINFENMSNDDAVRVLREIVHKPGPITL

FRMPD2_1, Q68DX3 = molecular target: FRMPD2_1, Q68DX3
Chain of FRMPD2_1, Q68DX3 (Q68DX3 770-861): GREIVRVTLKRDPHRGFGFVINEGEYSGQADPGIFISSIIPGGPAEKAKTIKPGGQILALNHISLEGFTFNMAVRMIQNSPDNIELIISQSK

GOPC, Q9HD26 = molecular target: GOPC, Q9HD26
GORASP2, Q9H8Y8 = molecular target: GORASP2, Q9H8Y8
GRASP, Q7Z6J2 = molecular target: GRASP, Q7Z6J2
Chain of GRASP, Q7Z6J2 (Q7Z6J2 96-193): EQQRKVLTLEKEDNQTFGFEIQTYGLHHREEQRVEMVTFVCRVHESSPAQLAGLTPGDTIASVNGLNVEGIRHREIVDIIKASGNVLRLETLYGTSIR

GRID2IP_1, A4D2P6 = molecular target: GRID2IP_1, A4D2P6
Chain of GRID2IP_1, A4D2P6 (A4D2P6 1-87): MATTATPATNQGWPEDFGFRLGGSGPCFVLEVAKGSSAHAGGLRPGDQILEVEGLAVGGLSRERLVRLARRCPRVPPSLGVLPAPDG

Inadl_1, Q8NI35 = molecular target: Inadl_1, Q8NI35
Chain of Inadl_1, Q8NI35 (Q8NI35 113-229): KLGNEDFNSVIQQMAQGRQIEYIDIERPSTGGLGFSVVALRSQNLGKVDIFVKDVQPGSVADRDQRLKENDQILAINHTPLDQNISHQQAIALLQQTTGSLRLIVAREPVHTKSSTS

Inadl_10, Q8NI35 = molecular target: Inadl_10, Q8NI35
Chain of Inadl_10, Q8NI35 (Q8NI35 1673-1763): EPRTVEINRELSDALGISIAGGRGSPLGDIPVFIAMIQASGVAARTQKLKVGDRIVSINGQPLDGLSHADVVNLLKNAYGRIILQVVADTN

Inadl_5, Q8NI35 = molecular target: Inadl_5, Q8NI35
Chain of Inadl_5, Q8NI35 (Q8NI35 673-780): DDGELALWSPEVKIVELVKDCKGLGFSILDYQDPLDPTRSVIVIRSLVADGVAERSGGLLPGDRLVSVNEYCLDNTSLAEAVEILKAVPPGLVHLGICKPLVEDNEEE

Inadl_9, Q8NI35 = molecular target: Inadl_9, Q8NI35
Chain of Inadl_9, Q8NI35 (Q8NI35 1530-1615): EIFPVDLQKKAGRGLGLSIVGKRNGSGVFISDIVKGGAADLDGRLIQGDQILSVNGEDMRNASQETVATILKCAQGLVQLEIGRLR

LIN7A, O14910 = molecular target: T4, LIN7A, O14910
T4 sequence (O14910 103-200, limits assumed, looked up): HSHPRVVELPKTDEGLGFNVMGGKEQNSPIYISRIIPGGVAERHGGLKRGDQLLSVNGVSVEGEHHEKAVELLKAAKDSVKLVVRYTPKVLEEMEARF

LIN7B, Q9HAP6 = molecular target: T5, LIN7B, Q9HAP6
T5 sequence (Q9HAP6 88-185, limits assumed, looked up): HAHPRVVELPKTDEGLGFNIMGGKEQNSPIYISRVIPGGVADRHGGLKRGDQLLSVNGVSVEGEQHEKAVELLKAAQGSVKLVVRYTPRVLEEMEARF

LNX1_1, Q8TBB1 = molecular target: LNX1_1, Q8TBB1
Chain of LNX1_1, Q8TBB1 (Q8TBB1 261-371): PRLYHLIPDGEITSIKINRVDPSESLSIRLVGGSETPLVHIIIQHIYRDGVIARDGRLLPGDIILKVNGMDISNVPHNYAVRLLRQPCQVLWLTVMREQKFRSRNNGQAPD

MAGI2_2, Q86UL8 = molecular target: MAGI2_2, Q86UL8
Chain of MAGI2_2, Q86UL8 (Q86UL8 410-522): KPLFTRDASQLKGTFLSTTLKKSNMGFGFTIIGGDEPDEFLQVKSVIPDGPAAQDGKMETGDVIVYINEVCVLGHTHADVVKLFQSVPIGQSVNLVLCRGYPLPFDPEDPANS

MAGI2_6, Q86UL8 = molecular target: MAGI2_6, Q86UL8
Chain of MAGI2_6, Q86UL8 (Q86UL8 1141-1229): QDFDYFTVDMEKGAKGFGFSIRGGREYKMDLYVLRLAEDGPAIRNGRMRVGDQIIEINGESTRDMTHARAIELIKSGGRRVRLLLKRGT

MAST2, Q6P0Q8 = molecular target: MAST2, Q6P0Q8
Chain of MAST2, Q6P0Q8 (Q6P0Q8 1099-1202): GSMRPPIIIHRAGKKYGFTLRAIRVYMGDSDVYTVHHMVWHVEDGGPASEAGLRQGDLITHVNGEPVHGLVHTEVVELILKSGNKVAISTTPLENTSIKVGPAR

MPDZ_12, O75970 = molecular target: T6, MPDZ_12, O75970
T6 sequence (O75970 1857-1958, limits assumed, looked up): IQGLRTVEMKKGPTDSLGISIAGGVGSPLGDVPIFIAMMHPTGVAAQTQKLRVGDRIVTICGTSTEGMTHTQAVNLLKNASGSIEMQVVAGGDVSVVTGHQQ

NHERF2_2, Q15599 = molecular target: NHERF2_2, Q15599
Chain of NHERF2_2, Q15599 (Q15599 142-238): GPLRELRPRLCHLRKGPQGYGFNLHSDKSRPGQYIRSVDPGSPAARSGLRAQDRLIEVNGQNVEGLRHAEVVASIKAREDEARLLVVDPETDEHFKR

NHERF4_4, Q86UT5 = molecular target: NHERF4_4, Q86UT5
Chain of NHERF4_4, Q86UT5 (Q86UT5 464-550): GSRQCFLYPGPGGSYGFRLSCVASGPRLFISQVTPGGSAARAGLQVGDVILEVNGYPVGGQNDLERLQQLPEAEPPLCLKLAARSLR

PCLO, Q9Y6V0 = molecular target: T7, PCLO, Q9Y6V0
T7 sequence (Q9Y6V0 4491-4600, limits assumed, looked up): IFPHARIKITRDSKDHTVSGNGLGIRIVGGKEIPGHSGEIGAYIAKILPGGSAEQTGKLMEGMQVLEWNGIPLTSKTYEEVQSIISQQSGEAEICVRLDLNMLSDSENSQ

PTPN13_1, Q12923 = molecular target: T8, PTPN13_1, Q12923
T8 sequence (Q12923 1088-1188, limits assumed, looked up): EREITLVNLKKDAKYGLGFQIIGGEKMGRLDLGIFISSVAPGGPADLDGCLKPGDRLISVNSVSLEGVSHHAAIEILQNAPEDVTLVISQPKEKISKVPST

SHANK1, Q9Y566 = molecular target: T9, SHANK1, Q9Y566
T9 sequence (Q9Y566 658-767, limits assumed, looked up): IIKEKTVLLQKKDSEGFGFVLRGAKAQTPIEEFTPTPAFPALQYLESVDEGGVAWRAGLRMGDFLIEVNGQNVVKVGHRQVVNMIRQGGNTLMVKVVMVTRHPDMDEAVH

TX1BP3, O14907 = molecular target: T10, TX1BP3, O14907
T10 sequence (O14907 10-122, limits assumed, looked up): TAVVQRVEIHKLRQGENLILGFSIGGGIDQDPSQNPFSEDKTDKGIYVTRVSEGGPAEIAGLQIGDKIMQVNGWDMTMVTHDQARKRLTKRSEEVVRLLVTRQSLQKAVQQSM

- pKd (ARHGEF12, Q9NZN5-2): 3.71
- pKd (DLG1_2, Q12959): below the threshold
- pKd (DLG3_1, Q92796): below the threshold
- pKd (DLG3_3, Q92796): below the threshold
- pKd (DLG5_1, Q8TDM6): below the threshold
- pKd (DVL3, Q92997): below the threshold
- pKd (FRMPD2_1, Q68DX3): below the threshold
- pKd (GOPC, Q9HD26): below the threshold
- pKd (GORASP2, Q9H8Y8): below the threshold
- pKd (GRASP, Q7Z6J2): below the threshold
- pKd (GRID2IP_1, A4D2P6): below the threshold
- pKd (Inadl_1, Q8NI35): below the threshold
- pKd (Inadl_10, Q8NI35): below the threshold
- pKd (Inadl_5, Q8NI35): below the threshold
- pKd (Inadl_9, Q8NI35): below the threshold
- pKd (LIN7A, O14910): below the threshold
- pKd (LIN7B, Q9HAP6): 3.61
- pKd (LNX1_1, Q8TBB1): 3.76
- pKd (MAGI2_2, Q86UL8): below the threshold
- pKd (MAGI2_6, Q86UL8): below the threshold
- pKd (MAST2, Q6P0Q8): below the threshold
- pKd (MPDZ_12, O75970): 3.53
- pKd (NHERF2_2, Q15599): below the threshold
- pKd (NHERF4_4, Q86UT5): below the threshold
- pKd (PCLO, Q9Y6V0): below the threshold
- pKd (PTPN13_1, Q12923): below the threshold
- pKd (SHANK1, Q9Y566): below the threshold
- pKd (TX1BP3, O14907): below the threshold
Binder: DLLGGGSDSI [TNRC6B, Q9UPQ9]

- pKd (ARHGEF12, Q9NZN5-2): 4.54
- pKd (DLG1_2, Q12959): 4.43
- pKd (DLG3_1, Q92796): 3.64
- pKd (DLG3_3, Q92796): 4
- pKd (DLG5_1, Q8TDM6): below the threshold
- pKd (DVL3, Q92997): below the threshold
- pKd (FRMPD2_1, Q68DX3): below the threshold
- pKd (GOPC, Q9HD26): 3.95
- pKd (GORASP2, Q9H8Y8): 3.75
- pKd (GRASP, Q7Z6J2): 4.74
- pKd (GRID2IP_1, A4D2P6): below the threshold
- pKd (Inadl_1, Q8NI35): below the threshold
- pKd (Inadl_10, Q8NI35): 3.95
- pKd (Inadl_5, Q8NI35): below the threshold
- pKd (Inadl_9, Q8NI35): 3.7
- pKd (LIN7A, O14910): below the threshold
- pKd (LIN7B, Q9HAP6): below the threshold
- pKd (LNX1_1, Q8TBB1): 3.75
- pKd (MAGI2_2, Q86UL8): 4.29
- pKd (MAGI2_6, Q86UL8): 4.43
- pKd (MAST2, Q6P0Q8): 5.82
- pKd (MPDZ_12, O75970): 3.84
- pKd (NHERF2_2, Q15599): 3.94
- pKd (NHERF4_4, Q86UT5): 4.05
- pKd (PCLO, Q9Y6V0): below the threshold
- pKd (PTPN13_1, Q12923): below the threshold
- pKd (SHANK1, Q9Y566): 3.92
- pKd (TX1BP3, O14907): 4.47
Binder: TKEIPNCTSV [SORCS3, Q9UPU3]

Second part, the binder before the results:

Binder: GQNMTVSVVI [PRLHR, P49683]
- pKd (ARHGEF12, Q9NZN5-2): 4.13
- pKd (DLG1_2, Q12959): below the threshold
- pKd (DLG3_1, Q92796): below the threshold
- pKd (DLG3_3, Q92796): below the threshold
- pKd (DLG5_1, Q8TDM6): 3.97
- pKd (DVL3, Q92997): below the threshold
- pKd (FRMPD2_1, Q68DX3): below the threshold
- pKd (GOPC, Q9HD26): below the threshold
- pKd (GORASP2, Q9H8Y8): below the threshold
- pKd (GRASP, Q7Z6J2): below the threshold
- pKd (GRID2IP_1, A4D2P6): below the threshold
- pKd (Inadl_1, Q8NI35): below the threshold
- pKd (Inadl_10, Q8NI35): below the threshold
- pKd (Inadl_5, Q8NI35): below the threshold
- pKd (Inadl_9, Q8NI35): below the threshold
- pKd (LIN7A, O14910): below the threshold
- pKd (LIN7B, Q9HAP6): 3.79
- pKd (LNX1_1, Q8TBB1): 3.47
- pKd (MAGI2_2, Q86UL8): below the threshold
- pKd (MAGI2_6, Q86UL8): below the threshold
- pKd (MAST2, Q6P0Q8): below the threshold
- pKd (MPDZ_12, O75970): below the threshold
- pKd (NHERF2_2, Q15599): 3.69
- pKd (NHERF4_4, Q86UT5): 3.97
- pKd (PCLO, Q9Y6V0): below the threshold
- pKd (PTPN13_1, Q12923): below the threshold
- pKd (SHANK1, Q9Y566): below the threshold
- pKd (TX1BP3, O14907): below the threshold

Binder: NSTHNLKDYV [CLDN20, P56880]
- pKd (ARHGEF12, Q9NZN5-2): below the threshold
- pKd (DLG1_2, Q12959): 3.5
- pKd (DLG3_1, Q92796): below the threshold
- pKd (DLG3_3, Q92796): below the threshold
- pKd (DLG5_1, Q8TDM6): below the threshold
- pKd (DVL3, Q92997): below the threshold
- pKd (FRMPD2_1, Q68DX3): below the threshold
- pKd (GOPC, Q9HD26): below the threshold
- pKd (GORASP2, Q9H8Y8): below the threshold
- pKd (GRASP, Q7Z6J2): 3.47
- pKd (GRID2IP_1, A4D2P6): below the threshold
- pKd (Inadl_1, Q8NI35): below the threshold
- pKd (Inadl_10, Q8NI35): below the threshold
- pKd (Inadl_5, Q8NI35): below the threshold
- pKd (Inadl_9, Q8NI35): 3.66
- pKd (LIN7A, O14910): below the threshold
- pKd (LIN7B, Q9HAP6): below the threshold
- pKd (LNX1_1, Q8TBB1): below the threshold
- pKd (MAGI2_2, Q86UL8): below the threshold
- pKd (MAGI2_6, Q86UL8): below the threshold
- pKd (MAST2, Q6P0Q8): below the threshold
- pKd (MPDZ_12, O75970): below the threshold
- pKd (NHERF2_2, Q15599): below the threshold
- pKd (NHERF4_4, Q86UT5): below the threshold
- pKd (PCLO, Q9Y6V0): below the threshold
- pKd (PTPN13_1, Q12923): below the threshold
- pKd (SHANK1, Q9Y566): below the threshold
- pKd (TX1BP3, O14907): below the threshold
